Data reported in IntAct's records for PubMed 17052462.

B1: B-cell CLL/lymphoma 9 protein (Homo sapiens), O00512 (parent)
chain: MHSSNPKVRSSPSGNTQSSPKSKQEVMVRPPTVMSPSGNPQLDSKFSNQGKQGGSASQSQPSPCDSKSGGHTPKALPGPGGSMGLKNGAGNGAKGKGKRERSISADSFDQRDPGTPNDDSDIKECNSADHIKSQDSQHTPHSMTPSNATAPRSSTPSHGQTTATEPTPAQKTPAKVVYVFSTEMANKAAEAVLKGQVETIVSFHIQNISNNKTERSTAPLNTQISALRNDPKPLPQQPPAPANQDQNSSQNTRLQPTPPIPAPAPKPAAPPRPLDRESPGVENKLIPSVGSPASSTPLPPDGTGPNSTPNNRAVTPVSQGSNSSSADPKAPPPPPVSSGEPPTLGENPDGLSQEQLEHRERSLQTLRDIQRMLFPDEKEFTGAQSGGPQQNPGVLDGPQKKPEGPIQAMMAQSQSLGKGPGPRTDVGAPFGPQGHRDVPFSPDEMVPPSMNSQSGTIGPDHLDHMTPEQIAWLKLQQEFYEEKRRKQEQVVVQQCSLQDMMVHQHGPRGVVRGPPPPYQMTPSEGWAPGGTEPFSDGINMPHSLPPRGMAPHPNMPGSQMRLPGFAGMINSEMEGPNVPNPASRPGLSGVSWPDDVPKIPDGRNFPPGQGIFSGPGRGERFPNPQGLSEEMFQQQLAEKQLGLPPGMAMEGIRPSMEMNRMIPGSQRHMEPGNNPIFPRIPVEGPLSPSRGDFPKGIPPQMGPGRELEFGMVPSGMKGDVNLNVNMGSNSQMIPQKMREAGAGPEEMLKLRPGGSDMLPAQQKMVPLPFGEHPQQEYGMGPRPFLPMSQGPGSNSGLRNLREPIGPDQRTNSRLSHMPPLPLNPSSNPTSLNTAPPVQRGLGRKPLDISVAGSQVHSPGINPLKSPTMHQVQSPMLGSPSGNLKSPQTPSQLAGMLAGPAAAASIKSPPVLGSAAASPVHLKSPSLPAPSPGWTSSPKPPLQSPGIPPNHKAPLTMASPAMLGNVESGGPPPPTASQPASVNIPGSLPSSTPYTMPPEPTLSQNPLSIMMSRMSKFAMPSSTPLYHDAIKTVASSDDDSPPARSPNLPSMNNMPGMGINTQNPRISGPNPVVPMPTLSPMGMTQPLSHSNQMPSPNAVGPNIPPHGVPMGPGLMSHNPIMGHGSQEPPMVPQGRMGFPQGFPPVQSPPQQVPFPHNGPSGGQGSFPGGMGFPGEGPLGRPSNLPQSSADAALCKPGGPGGPDSFTVLGNSMPSVFTDPDLQEVIRPGATGIPEFDLSRIIPSEKPSQTLQYFPRGEVPGRKQPQGPGPGFSHMQGMMGEQAPRMGLALPGMGGPGPVGTPDIPLGTAPSMPGHNPMRPPAFLQQGMMGPHHRMMSPAQSTMPGQPTLMSNPAAAVGMIPGKDRGPAGLYTHPGPVGSPGMMMSMQGMMGPQQNIMIPPQMRPRGMAADVGMGGFSQGPGNPGNMMF

Variants of: B1
Settings: with ctnb1_human CTNNB1, P35222
ctnb1_human CTNNB1, P35222, sequence (P35222 whole entry): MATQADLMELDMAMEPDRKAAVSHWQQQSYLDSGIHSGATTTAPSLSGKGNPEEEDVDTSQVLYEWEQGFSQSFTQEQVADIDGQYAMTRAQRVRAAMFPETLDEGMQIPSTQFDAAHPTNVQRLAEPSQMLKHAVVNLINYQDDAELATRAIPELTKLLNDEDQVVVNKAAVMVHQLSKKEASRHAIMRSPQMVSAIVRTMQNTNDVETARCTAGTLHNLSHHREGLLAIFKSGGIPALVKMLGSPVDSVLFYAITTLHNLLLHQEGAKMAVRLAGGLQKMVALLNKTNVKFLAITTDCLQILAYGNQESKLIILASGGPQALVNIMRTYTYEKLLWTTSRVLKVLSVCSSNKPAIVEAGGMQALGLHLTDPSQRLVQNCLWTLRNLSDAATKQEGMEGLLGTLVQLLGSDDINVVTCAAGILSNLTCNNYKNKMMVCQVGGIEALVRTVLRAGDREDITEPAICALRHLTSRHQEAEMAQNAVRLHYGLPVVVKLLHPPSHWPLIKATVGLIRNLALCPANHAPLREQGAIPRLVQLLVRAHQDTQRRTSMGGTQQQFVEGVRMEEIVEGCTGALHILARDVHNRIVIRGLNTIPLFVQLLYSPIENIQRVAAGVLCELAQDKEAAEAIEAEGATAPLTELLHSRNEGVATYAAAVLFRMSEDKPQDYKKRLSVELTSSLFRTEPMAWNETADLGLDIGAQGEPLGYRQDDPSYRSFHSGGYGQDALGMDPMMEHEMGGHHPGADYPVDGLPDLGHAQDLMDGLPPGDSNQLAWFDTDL

effect of a mutation on the interaction | Variant
decreasing interaction | L366A
decreasing interaction | I369A
decreasing interaction | H358A
decreasing interaction | R359A
